Laboratory results: US20150246953A1 (Scripps Research, published 2015)

Molecular target: T1, MG281F2 construct, residues 278 to 450 with N-terminal 6-His tag and thrombin cleavage site (Mycoplasma genitalium, UniProt P47523 279-452)
T1 sequence: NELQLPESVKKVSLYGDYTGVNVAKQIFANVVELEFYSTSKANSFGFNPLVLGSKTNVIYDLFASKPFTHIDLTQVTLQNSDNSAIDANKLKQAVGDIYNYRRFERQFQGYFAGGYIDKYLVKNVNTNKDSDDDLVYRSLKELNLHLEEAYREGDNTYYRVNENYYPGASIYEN
Assay: Western blot, plasma 13PL as primary antibody

B1: IgG from multiple myeloma patient plasma 13PL (antibody, V domains shown)
VH: AVSLVESGGGTVEPGSTLRLSCAASGFTFGSYAFHWVRQAPGDGLEWVAFISYNGSSKYYANFVKGRFTISRDNSSNTLSLQMNSLKASDTAVYYCARAPDCAQADCHKGAFGYWGQGTLVTVSS
VL: DIEMTQSPSSLSASTGDKVTITCQASQDIAQFLDWYQQRPGDTPKLLIYDASNLAIGVPSRFTGSGSGTDFTFTISSLQPEDIAVYYCQHYDDFPISFGPGTKLETKR
notes: also called multiple myeloma antibody 13PL
  binding result: no binding (tested: 1 µg/µg and 2 µg/µg)
